This note sets out measurements from the RNAGym collection of RNA variant scans (doi:10.7554/elife.80360).

First the molecules themselves.
B1: HDV Ribozyme (parent)
chain: GGCCGGCAUGGUCCCAGCCUCCUCGCUGGCGCCGGCUGGGCAACAUUCCGAGGGGACCGUCCCCUCGGUAAUGGCGAAUGGGACCCA

Variants of B1 are the subject of the data set. In words: self-cleavage, relative activity (ratio to wild type); higher = more cleavage; co-transcriptional.
Consider GGCCGGCAUGGUCCCAGCCUCCUCGGUGGCGCCGGCUGGGCAACAUUGCGAGGGGACCGUCCCCUCGGUAAUGGCGAAUGGGACCCA [C26G C48G], for which the self-cleavage was 1.02.

In the case of GGCCGGCAUGGUCCCAGCCUCCUCGGUGGCGCCGGCUGGGCAACAUUCCGGGGGGACCGUCCCCUCGGUAAUGGCGAAUGGGACCCA [C26G A51G], the self-cleavage amounted to 0.997.

Turning to GGCCGGCAUGGUCCCAGCCUCCUCGGUGGCGCCGGCUGGGCAACAUUCCGUGGGGACCGUCCCCUCGGUAAUGGCGAAUGGGACCCA [C26G A51U], the self-cleavage was 0.95.

As to GGCCGGCAUGGUCCCAGCCUCCUCGGUGGCGCCGGCUGGGCAACAUUCCGAGGGGACCGUCCCCUGGGUAAUGGCGAAUGGGACCCA [C26G C66G], the self-cleavage stood at 1.1.

Turning to GGCCGGCAUGGUCCCAGCCUCCUCGGUGGCGCCGGCUGGGCAAGAUUCCGAGGGGACCGUCCCCUCGGUAAUGGCGAAUGGGACCCA [C26G C44G], the self-cleavage was 0.554.

As to GGCCGGCAUGGUCCCAGCCUCCUCGGUGGCGCCGGCUGGGCAAAAUUCCGAGGGGACCGUCCCCUCGGUAAUGGCGAAUGGGACCCA [C26G C44A], the self-cleavage amounted to 0.554.

Turning to GGCCGGCAUGGUCCCAGCCUCCUCGAUGGCGCCGGCUGGGCAACAUUCCGAGGGGACCGUCCCCUCGGUAAUGGCGAAAGGGACCCA [C26A U79A], the self-cleavage was 0.997.

As to GGCCGGCAUGGUCCCAGCCUCCUCGAUGGCGCCGGCUGGGCAACAUUCCGAGGGGACCGUCCCCUCGGUAAUGGCGAACGGGACCCA [C26A U79C], the self-cleavage stood at 0.469.

For the variant GGCCGGCAUGGUCCCAGCCUCCUCGGUGGCGCCGGCUGGGCAACAUUCCGAGGGGACCGUCCCCUCGGUGAUGGCGAAUGGGACCCA [C26G A70G], the self-cleavage was 0.665.

On to GGCCGGCAUGGUCCCAGCCUCCUCGAUGGCGCCGGCUGGGCAACAAUCCGAGGGGACCGUCCCCUCGGUAAUGGCGAAUGGGACCCA [C26A U46A], for which the self-cleavage is 0.77.

For the variant GGCCGGCAUGGUCCCAGCCUCCUCGAUGGCGCCGGCUGGGCAACAGUCCGAGGGGACCGUCCCCUCGGUAAUGGCGAAUGGGACCCA [C26A U46G], the self-cleavage was 0.86.

For GGCCGGCAUGGUCCCAGCCUCCUCGAUGGCGCCGGCUGGGCAACAUUCCGAGGGGACCGUCCCCUCGGGAAUGGCGAAUGGGACCCA [C26A U69G], the self-cleavage turned out to be 1.15.

Consider GGCCGGCAUGGUCCCAGCCUCCUCGAUGGCGCCGGCUGGGCAACAUUCCGAGGGGACCGUCCCCUCGGCAAUGGCGAAUGGGACCCA [C26A U69C], for which the self-cleavage was determined as 0.988.

With GGCCGGCAUGGUCCCAGCCUCCUCGAUGGCGCCGGCUGGGCAACAUUCCGAGGGGACCGUCCCCUCGGUAAUGGCGAAUGGCACCCA [C26A G82C], the self-cleavage amounted to 0.342.

Consider GGCCGGCAUGGUCCCAGCCUCCUCGAUGGCGCCGGCUGGGCAACAUUCCGAGGGGACCGUCCCCUCGGUAAUGGCGAAUGGUACCCA [C26A G82U], for which the self-cleavage was 0.317.

On to GGCCGGCAUGGUCCCAGCCUCCUCGGUGGCGCCGGCUGGGCAACAUUCCGAGGGGAGCGUCCCCUCGGUAAUGGCGAAUGGGACCCA [C26G C57G], for which the self-cleavage was 1.04.

On to GGCCGGCAUGGUCCCAGCCUCCUCGGUGGAGCCGGCUGGGCAACAUUCCGAGGGGACCGUCCCCUCGGUAAUGGCGAAUGGGACCCA [C26G C30A], for which the self-cleavage was 0.623.

As for GGCCGGCAUGGUCCCAGCCUCCUCGGUGGUGCCGGCUGGGCAACAUUCCGAGGGGACCGUCCCCUCGGUAAUGGCGAAUGGGACCCA [C26G C30U], the self-cleavage stood at 0.415.

With GGCCGGCAUGGUCCCAGCCUCCUCGGUGGCGCCGGCUGGGCAACAUUCUGAGGGGACCGUCCCCUCGGUAAUGGCGAAUGGGACCCA [C26G C49U], the self-cleavage was 0.935.

Take GGCCGGCAUGGUCCCAGCCUCCUCGGUGGCGCCGGCUGGGCAACAUUCGGAGGGGACCGUCCCCUCGGUAAUGGCGAAUGGGACCCA [C26G C49G]: the self-cleavage was determined as 0.87.

For the variant GGCCGGCAUGGUCCCAGCCUCCUCGGUGGCGCCGGCUGGGCAACAUUCCGAGGGGACCGUCCCCUCGGUAAUGGCGAAUGGGACCCU [C26G A87U], the self-cleavage came out at 0.976.

Take GGCCGGCAUGGUCCCAGCCUCCUCGGUGGCGCCGGCUGGGCAACAUUCCGAGGGGACCGUCCGCUCGGUAAUGGCGAAUGGGACCCA [C26G C63G]: the self-cleavage came to 0.653.

Turning to GGCCGGCAUGGUCCCAGCCUCCUCGGUGGCGCCGGCUGGGCAACAUUCCGAGGGGACCGUCCACUCGGUAAUGGCGAAUGGGACCCA [C26G C63A], the self-cleavage stood at 0.748.

Turning to GGCCGGCAUGGUCCCAGCCUCCUCGGUGGCGCCGGCUGGGCAACAUUCCGAGGGGACCGUCCUCUCGGUAAUGGCGAAUGGGACCCA [C26G C63U], the self-cleavage worked out at 0.743.

With GGCCGGCAUGGUCCCAGCCUCCUCGAUGGCGCCGGCUGGGCAACAUUCCGAGGGGACCGUCCCCUCAGUAAUGGCGAAUGGGACCCA [C26A G67A], the self-cleavage is 1.01.

Consider GGCCGGCAUGGUCCCAGCCUCCUCGAUGGCGCCGGCUGGGCAACAUUCCGAGGGGACCGUCCCCUCGGUAAUUGCGAAUGGGACCCA [C26A G73U], for which the self-cleavage worked out at 0.415.

Regarding GGCCGGCAUGGUCCCAGCCUCCUCGGUGGCGCCGGCUGGGCAACAUUCCGAGGGGACCGUCGCCUCGGUAAUGGCGAAUGGGACCCA [C26G C62G], the self-cleavage came out at 0.516.

On to GGCCGGCAUGGUCCCAGCCUCCUCGGUGGCGCCGGCUGGGCAACAUUCCGAGGGGACCGUCCCUUCGGUAAUGGCGAAUGGGACCCA [C26G C64U], for which the self-cleavage turned out to be 0.99.

As for GGCCGGCAUGGUCCCAGCCUCCUCGGUGGCGCCGGCUGGGCAACAUUCCGAGGGGACCGUCCCAUCGGUAAUGGCGAAUGGGACCCA [C26G C64A], the self-cleavage worked out at 0.554.

On to GGCCGGCAUGGUCCCAGCCUCCUCGGUGGCGCCGGCUGGGCAACAUUCCGAGGGGACCGUCCCCUCGGUAGUGGCGAAUGGGACCCA [C26G A71G], for which the self-cleavage stood at 0.475.

GGCCGGCAUGGUCCCAGCCUCCUCGGUGGCGCCGGCUGGGCAACAUUCCGAGGGGACCGUCCCCUCGGUAUUGGCGAAUGGGACCCA [C26G A71U]: the self-cleavage amounted to 0.612.

For the variant GGCCGGCAUGGUCCCAGCCUCCUCGGUGGCGCCGGCUGGGCAACAUUCCGAGGGGACCGUCCCCUCGGUACUGGCGAAUGGGACCCA [C26G A71C], the self-cleavage came out at 0.85.
